Reference: the DeepSol protein solubility set

Assay: soluble on expression in E. coli; label from the status in PepcDB or PDB records

**Q.** Which “soluble on expression in E. coli” value does the source give for “MLQSTLLRKSIFYSLAHRRHVASVPLKDVFCDPENPKILQFGDISMAHHRIQNGIVRTDCRKSRCLSKLFDMNIYLKMEVNQDTGSFKERGARYALQNLPEEKKKAGVYAASAGNHALALSLHGKQLGVEVNVVMPKIAPLMKINRCQDLGANILVQGEDIAESREIALRMAHDSNGTYINGYDHYDILAGAGTTGIEILEQIQMPDAILVPVGGGGLVAGVATAVKALSPTTEVIGVVSETCQAIVKSLQAGHPVYTPTRPTLADGLAVPNAGVNAFASMIGKVDRVISVPENDIAVAILRLIENEKVVCEGAGAIGIGAILSGKLNHLKGKTVVSILSGGNIDSTSLGRCIERGLAYDHRVIRLSVIIPDKPGGLSKLTGLVGELSGNVRDLYLERAFMRNDMSSQRVKMVIEVRGEEHEMQLKQKFQEVYDPSNCQFKNNRLPRL” here?
**A.** Its value is “not soluble”.

**Q.** With “MESTGSVGEAPGGPRVLVVGGGIAGLGAAQRLCGHSAFPHLRVLEATARAGGRIRSERCFGGVVEVGAHWIHGPSRGNPVFQLAAEYGLLGEKELSQENQLVETGGHVGLPSVSYASSGASVSLQLVAEMATLFYGLIDQTREFLHAAETPVPSVGEYLKKEIGQHVAGWTEDEETRKLKLAVLNSFFNLECCVSGTHSMDLVALAPFGEYTVLPGLDCTFSKGYQGLTNCMMAALPEDTVVFEKPVKTIHWNGSFQEAAFPGETFPVSVECEDGDRFPAHHVIVTVPLGFLREHLDTFFDPPLPAEKAEAIRKIGFGTNNKIFLEFEEPFWEPDCQLIQLVWEDTSPLEDAAPELQDAWFRKLIGFVVLPAFASVHVLCGFIAGLESEFMETLSDEEVLLCLTQVLRRVTGNPRLPAPKSVLRSRWHSAPYTRGSYSYVAVGSTGGDLDLLAQPLPADGAGAQLQILFAGEATHRTFYSTTHGALLSGWREADRLLSLWAPQVQQPRPRL” as the sequence, how does the “soluble on expression in E. coli” value read?
**A.** Its value is “not soluble”.

**Q.** For “MALILTFLGKSGVARTKIAIAAAKLLASQGKRVLLAGLAEPVLPLLLEQTLTPDPQQIAPNLEVVQFQSSVLLERNWEEVKKLEAQYLRTPIIKEVYGQELVVLPGMDSALALNAIREYDASGKYDAIVYDGTGDAFTLRMLGLPESLSWYVRRFRQLFVNSDLGKTIAESPLIQPLISSFFNVNWTADNFAQPTNQVNNFLDKGKEALADPKRVAAFLVTTADPLEVVSVRYLWGSAQQIGLTIGGVIQVSSQTEGDLSAEFTPLSVTVVPDVTKGDWQPLIDALPNFVEQAEQAPKPITIDTHNRQVRLFLPGFDKKQVKLTQYGPEVTVEAGDQRRNIFLPPALSGRPITGAKFQNNYLIISFLEHHHHHH”, which “soluble on expression in E. coli” value is on record?
**A.** Its value is “soluble”.

**Q.** Which “soluble on expression in E. coli” value does the source give for “MPSKQVGWWTMSEHTNDEVQPTALSGNDAVNRAAEQWKESAHRNIPGLGDLPIPDDTANLREGPNLHDGLLALLPLVGVWRGTGHADTAEEGQYAFGQQITFAHDGENYLTYESRIWKLDDEGNSTDLDYRESGFWRISLKDEIEVVLTHSTGVAEIFYGEPMNERAWQIESASTMVTAQGPATLGPGKRLYGLMPNNNLGWVDERMVDGEMRPRMSAELSRVIGLEHHHHHH” here?
**A.** The value was “soluble”.

**Q.** For “MGSDKIHHHHHHMLVRQEALSSKMSIKDLPSSSPLPNANLVLVFGSVRRFSDGKLPTQLKERYPAAQIVGCTTSGEIGPHGVSDDSLQITAIAWDNTMQRVTYARANNMQTSAETAINLAKQLKSDSLRTILVFSDGLHINGSELLQGFQSVLGDIPIVGGMAGDNAEFSRTLQLLNDSIEEGLVVAIGLYGDKLITASGALGGWKPYGPPRKITRSEKNVVYEMDGKPALPLYRMYIGEQNAKALPGSGLRFPFAVIEEGKREVEKVRTLLAIDPEENSLTFAGNVEEGETVRLCQTTHDRLVEGAGGAARLVTANLDTSQPGLALCVSCVGRKLVMAEQIADEIQAVQQTLGSQTALTGFYSYGEFCPRPNTTDNVLHNQTMTIGYLSEAL”, which “soluble on expression in E. coli” value is on record?
**A.** Its value is “not soluble”.

**Q.** Which “soluble on expression in E. coli” value does the source give for “MGSDKIHHHHHHMKYQQKLRNMIDFIGKHLDEELSLESLSEIFCISKFHFHRLFTAFTGLSLQQYIKWLRLKRAAHQLIVDKDQSVINIAINAGFESHEAFSRAFKKACGFSPSQFRQGFGRSYWEQPPYCLPGQSRTDMKVDIKSIDKIRLAVIEHKGDPKLLGESINKLVSWAKSQSINLKPRAGEAFALAYDDPKTTPPSDFRIDLGIKVPENLKLDGVIEKFLPSGRYAVTVHKGSRNNIGDVVYYLYRDWLPNTSEQLGDLPCIFCYYNFDHEVAETELLTECWLLLK” here?
**A.** Its value is “not soluble”.
